According to patent US20240238445A1, “INHIBITORS AND USES THEREOF” (NEURACLE SCIENCE CO., LTD., priority 2021, published 2024):

Legend:
[1] = target: binding of FAM19A5 protein to full-length ectodomain of the LRRC4B protein (amino acids 36-576 of SEQ ID NO: 2) (Homo sapiens, UniProt Q7Z5A7); test: Competitive inhibition assay, plate coated with full-length ectodomain of LRRC4B (amino acids 36-576); settings: increasing concentrations; FAM19A5 5 ng/mL; 100 nM coat
Experimental: Next, to further assess the role that the binding domain of the LRRC4B protein has on the interaction between FAM19A5 protein and members of the LRRC4 protein family, a competitive inhibition assay was used to determine whether different LRRC4B deletion constructs from Example 2 could inhibit the binding of FAM19A5 to the full-length ectodomain of the LRRC4B protein (i.e., amino acids 36-576 of SEQ ID NO: 2; SEQ ID NO: 5). Briefly, 100 nM of the full-length ectodomain of the LRRC4B protein was used to coat a plate, and then recombinant FAM19A5 protein (5 ng/mL) was added to the plate in combination with the following LRRC4B deletion constructs (increasing concentrations): (1) LRRC4B (453-576) (i.e., construct #11 in Table 6); (2) LRRC4B (453-576) mutant (comprises alanine substitutions at positions 488 and 489 of SEQ ID NO: 2; SEQ ID NO: 16); (3) LRRC4B (484-576) (i.e., construct #12 in Table 6); (4) LRRC4B (482-576); (5) LRRC4B (482-497); and (6) LRRC4B (498-576). The plates were incubated at 37° C., and then, the amount of FAM19A5 bound to the coated LRRC4B ectodomain protein was measured using HRP-conjugated anti-FAM19A5 (1-65) antibody.
(§1) As described in Example 3, there appeared to be much similarity in the binding domains of the different members of the LRRC4 family. […] Then, recombinant FAM19A5 protein (5 ng/mL) was added in combination with one of the following: (i) LRRC4B (484-576) protein fragment, (ii) LRRC4B (453-576, AA) protein fragment, and (iii) synthetic FB-20 peptide. The plates were incubated at 37° C., and then, the amount of FAM19A5 protein bound to the coated LRRC4, LRRC4B, or LRRC4C proteins was measured using anti-FAM19A5 (1-65) antibody.
Next, to assess whether polypeptides comprising the binding domains of LRRC4 or LRRC4C proteins can have similar inhibitory effects on LRRC4B protein binding, the following synthetic peptides were constructed: (1) FBC4-23 (contains the binding domain of the LRRC4 protein, i.e., YSFFTTVTVETTE); and (2) FBC4C-23 (contains the binding domain of the LRRC4C protein, i.e., FSYFSTVTVETME). Then, the ability of the peptides to inhibit the binding of LRRC4 protein family members to FAM19A5 protein was assessed using a competitive inhibition assay. Briefly, plates were coated with 100 nM of either LRRC4B protein fragment #1 (amino acids 36-576 of SEQ ID NO: 2; SEQ ID NO: 5) or LRRC4B protein fragment #2 (amino acids 453-576 of SEQ ID NO: 2; SEQ ID NO: 7). Then, recombinant FAM19A5 protein (5 ng/ml for plates coated with LRRC4B fragment #1; and 1 ng/mL for plates coated with LRRC4B fragment #2) was added to the plates in combination with 20 nM of the FBC4-23, FBC4C-23, and FB-20 peptides. The plates were incubated at 37° C. and then, the amount of FAM19A5 protein bound to the coated LRRC4B protein fragments was assessed using HRP-conjugated anti-FAM19A5 (1-65) antibody.
Next, to determine the minimal sequence required to inhibit the interaction of FAM19A5 and members of the LRRC4 protein family, ten FB-20 peptide variants were constructed by serially deleting one or more amino acids from the N-terminus or C-terminus of the FB-20 peptide. Then, a competitive inhibition assay was used to assess the ability of the different FB-20 peptide variants to inhibit the interaction between FAM19A5 and LRRC4B protein. Again, plates were coated with 100 nM of either LRRC4B protein fragment #1 (amino acids 36-576 of SEQ ID NO: 2; SEQ ID NO: 5) or LRRC4B protein fragment #2 (amino acids 453-576 of SEQ ID NO: 2; SEQ ID NO: 7). Then, recombinant FAM19A5 protein (5 ng/ml for plates coated with LRRC4B fragment #1; and 1 ng/mL for plates coated with LRRC4B fragment #2) was added to the plates in combination with 20 nM of the different peptides described above. After incubating the plates at 37° C., the amount of FAM19A5 protein bound to the coated LRRC4B protein fragments was assessed using HRP-conjugated anti-FAM19A5 (1-65) antibody. […]

[2] = target: T1, FAM19A5 protein (Homo sapiens, UniProt Q7Z5A7); test: Co-immunoprecipitation of FLAG-tagged LRRC4 family deletion constructs/fragments with recombinant FAM19A5 in HEK293 cells; assay type: binding; settings: HEK293 cells expressing FLAG-tagged construct, recombinant FAM19A5 1 μM 30 minutes; IP anti-FLAG, blot anti-FAM19A5 (3-2)
Outline: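 HEK293 cells expressing FLAG-tagged LRRC4B deletion constructs or LRRC4C (aa 354-527) / LRRC4 (aa 353-527) fragments were treated with 1 μM recombinant FAM19A5 for 30 min. Lysates immunoprecipitated with anti-FLAG and immunoblotted with anti-FLAG and anti-FAM19A5 (3-2) antibodies.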
Target sequence in this assay (Q7Z5A7 44-132): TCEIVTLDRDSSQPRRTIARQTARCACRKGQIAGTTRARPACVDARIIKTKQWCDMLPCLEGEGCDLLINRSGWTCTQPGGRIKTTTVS

[3] = target: binding of FAM19A5 protein to full-length ectodomain of LRRC4 protein (Homo sapiens, UniProt Q7Z5A7); test: Competitive inhibition assay, plate coated with full-length ectodomain of LRRC4; settings: FAM19A5 5 ng/mL; 100 nM/well coat
binding of FAM19A5 protein to full-length ectodomain of LRRC4 protein, sequence (Q7Z5A7 44-132): as above
Experimental: as §1

[4] = target: binding of FAM19A5 protein to full-length ectodomain of LRRC4C protein (Homo sapiens, UniProt Q7Z5A7); test: Competitive inhibition assay, plate coated with full-length ectodomain of LRRC4C; settings: FAM19A5 5 ng/mL; 100 nM/well coat
binding of FAM19A5 protein to full-length ectodomain of LRRC4C protein, sequence (Q7Z5A7 44-132): as above
Experimental: as §1

[5] = target: T1, FAM19A5 protein; test: competitive inhibition ELISA; competitor: coated LRRC4B(453-576, TT/TT)-hFc
[6] = target: T2, FAM19A5 isoform 2 - LRRC4B protein complex in HEK293 cells (Homo sapiens, UniProt Q7Z5A7); test: Immunofluorescence: dissociation of FAM19A5 from full-length LRRC4B in HEK293 cells; assay type: cell-based; settings: HEK293 cells expressing FAM19A5 isoform 2 and LRRC4B, treated 30 minutes
T2 construct: expressed in transfected cells; host or cells: HEK293
T2 sequence (Q7Z5A7 1-125 isoform Q7Z5A7-2, one chain of several): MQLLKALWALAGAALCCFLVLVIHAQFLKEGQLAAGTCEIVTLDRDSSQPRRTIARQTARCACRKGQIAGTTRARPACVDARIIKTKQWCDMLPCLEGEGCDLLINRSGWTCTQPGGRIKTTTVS
Experimental: Since LRRC4B protein fragments containing the binding domain described in Example 2 (e.g., LRRC4B (453-576); i.e., construct #11 in Table 6) was able to bind to FAM19A5 protein with high affinity, it was next assessed whether such protein fragments could compete with naturally existing LRRC4B protein for binding to FAM19A5 protein, and thereby, dissociate the FAM19A5-LRRC4 protein family complex. Briefly, HEK293 cells expressing both FAM19A5 isoform 2 and LRRC4B protein were treated in vitro for 30 minutes with either LRRC4B (453-576)-hFc or mutant LRRC4B (453-576)-hFc (includes alanine substitutions at positions 488 and 489 of SEQ ID NO: 2; SEQ ID NO: 16) protein fragments. Then, cells were immunostained with anti-FAM19A5 (1-65) and anti-LRRC4B antibodies to determine the expression of FAM19A5 and full-length LRRC4B proteins, respectively. The hFc-fused LRRC4B protein fragments were determined using an anti-hIgG antibody. The nuclei were stained with Hoechst 33342.

[7] = target: T1, FAM19A5 protein; test: ELISA, coated hFc-conjugated ectodomain (100 nM/well), rFAM19A5 titrated 0.005-10 nM

binding of FAM19A5 protein to full-length ectodomain of the LRRC4B protein (amino acids 36-576 of SEQ ID NO: 2), sequence (Q7Z5A7 44-132): as the sequence (Q7Z5A7 44-132) above

| Molecule | EC50 [7] [nM] | inhibition of FAM19A5 binding to coated full-length LRRC4B ectodomain protein (in words) [1] | inhibition of FAM19A5 binding to coated LRRC4 protein (in words) [3] | inhibition of FAM19A5 binding to coated LRRC4C protein (in words) [4] | other results |
| --- | --- | --- | --- | --- | --- |
| LRRC4B (484-576): LRRC4B ectodomain fragment, amino acids 484-576 of SEQ ID NO: 2 (protein) YTYFTTVTVETLETQPGEEALQPRGTEKEPPGPTTDGVWGGGRPGDAAGPASSSTTAPAPRSSRPTEKAFTVPITDVTENALKDLDDVMKTTK |  | also able to inhibit the interaction | able to inhibit FAM19A5 protein from binding | able to inhibit FAM19A5 protein from binding | binding to FAM19A5 protein (co-immunoprecipitation) [2]: able to bind to the FAM19A5 protein with varying degree |
| GYTYFTTVTVEWYETQPGEEA [FB-21 (W12Y13)] |  |  |  |  | fold increase in the ability to dissociate the LRRC4B-FAM19A5 complex, compared with the wild-type FB-21 [5]: 2.9 fold |
| LRRC4B mutant: LRRC4B (453-576) with alanine substitutions at positions 488 and 489 of SEQ ID NO: 2 (protein, human Fc) VSAVDPVAAGGTGSGGGGPGGSGGVGGGSGGYTYFAAVTVETLETQPGEEALQPRGTEKEPPGPTTDGVWGGGRPGDAAGPASSSTTAPAPRSSRPTEKAFTVPITDVTENALKDLDDVMKTTK |  | much inferior in their ability to inhibit the interaction | minimal effect | minimal effect | dissociation of FAM19A5 from full-length LRRC4B protein [6]: remained largely bound to the full-length LRRC4B protein |

Now from value to molecule, other results behind:

| EC50 [7] [nM] | Molecule | inhibition of FAM19A5 binding to coated full-length LRRC4B ectodomain protein (in words) [1] | inhibition of FAM19A5 binding to coated LRRC4 protein (in words) [3] | inhibition of FAM19A5 binding to coated LRRC4C protein (in words) [4] | other results |
| --- | --- | --- | --- | --- | --- |
| 0.48 | full-length ectodomain of LRRC4 protein (amino acid residues 39-527 of SEQ ID NO: 1) conjugated to human Fc (Fc fusion, not shown: a dimerising Fc or GST) ASAGPQNCPSVCSCSNQFSKVVCTRRGLSEVPQGIPSNTRYLNLMENNIQMIQADTFRHLHHLEVLQLGRNSIRQIEVGAFNGLASLNTLELFDNWLTVIPSGAFEYLSKLRELWLRNNPIESIPSYAFNRVPSLMRLDLGELKKLEYISEGAFEGLFNLKYLNLGMCNIKDMPNLTPLVGLEELEMSGNHFPEIRPGSFHGLSSLKKLWVMNSQVSLIERNAFDGLASLVELNLAHNNLSSLPHDLFTPLRYLVELHLHHNPWNCDCDILWLAWWLREYIPTNSTCCGRCHAPMHMRGRYLVEVDQASFQCSAPFIMDAPRDLNISEGRMAELKCRTPPMSSVKWLLPNGTVLSHASRHPRISVLNDGTLNFSHVLLSDTGVYTCMVTNVAGNSNASAYLNVSTAELNTSNYSFFTTVTVETTEISPEDTTRKYKPVPTTSTGYQPAYTTSTTVLIQTTRVPKQVAVPATDTTDKMQTSLDEVMKTTK |  |  |  |  |
| 0.64 | full-length ectodomain of LRRC4B protein (amino acids 36-576 of SEQ ID NO: 2) conjugated to human Fc (Fc fusion, not shown: a dimerising Fc or GST) AGGGGVAVTSAAGGGSPPATSCPVACSCSNQASRVICTRRDLAEVPASIPVNTRYLNLQENGIQVIRTDTFKHLRHLEILQLSKNLVRKIEVGAFNGLPSLNTLELFDNRLTTVPTQAFEYLSKLRELWLRNNPIESIPSYAFNRVPSLRRLDLGELKRLEYISEAAFEGLVNLRYLNLGMCNLKDIPNLTALVRLEELELSGNRLDLIRPGSFQGLTSLRKLWLMHAQVATIERNAFDDLKSLEELNLSHNNLMSLPHDLFTPLHRLERVHLNHNPWHCNCDVLWLSWWLKETVPSNTTCCARCHAPAGLKGRYIGELDQSHFTCYAPVIVEPPTDLNVTEGMAAELKCRTGTSMTSVNWLTPNGTLMTHGSYRVRISVLHDGTLNFTNVTVQDTGQYTCMVTNSAGNTTASATLNVSAVDPVAAGGTGSGGGGPGGSGGVGGGSGGYTYFTTVTVETLETQPGEEALQPRGTEKEPPGPTTDGVWGGGRPGDAAGPASSSTTAPAPRSSRPTEKAFTVPITDVTENALKDLDDVMKTTK |  |  |  |  |
